For 23 sequences, protein production results are on record in a protein production outcome set (Wang et al. 2014).

This data set can be described thus: label from the status in PepcDB records.
For “MTFCFWMRDTCHQRRRADIGSANADRYWEEDMTGTPRLLESRWDDAYAQTLDEPGKLLYRSNLLGADKRITNYGGGNTSAKVLEIDPLTGEKVRVMWVKGSGGDVGTIKLDGFATLYLEKLEALKGIYKGVEDEDRMVGFLPHCTFNLNPRAASIDTPLHGFVPFDHVDHMHPDAIIAIAASKNSKELTQQIFGDDIGWLPWRRPGFQLGLDLEAFVKANPTAKGVVLESHGLFTWDDDAKACYELTLAIINKAIEWFAAETEGKTIFGGALAKSLPVAERRAIAARLMPEIRGRIGREERKLGHFDDQDAVLEFVNSKDLKPLGNLGTSCPDHFLRTKIRPLILDLDTAKPDVDALTAGLDKALEAYRADYSRYYEACRHDNSPKMRDPNPVIFLIPGVGMLSFAKDKATARIAGEFYVNAINVMRGASTVSEYQGLPEQEAFDIEYWLLEEAKLQRMPKPKSLAGRVAFVTGGAGGIGRATAERLADEGACVVLADIDEAALEAAKGDFVKRYSGDAVRTVKLDVTQEDDVISAFAEASVEFGGVDILVSNAGIASSAPVEDTTLAMWNKNIDILATGYFLVSREAFRLLRRQNLGGNIVFVASKNGLASSPNASAYCTAKAAEIHLARCLALEGAEAGIRVNTVNPDAVLRGSKIWNGEWREQRAASSKIEVTDLEEHYRKRSMLKLNVFPEDIAEAIYFLASDASAKSTGNIINVDAGNAQSFTR”, the protein production result is on record as “failed”.

As for “MSYAGDITPLQAWEMLSDNPRAVLVDVRCEAEWRFVGVPDLSSLGREVVYVEWATSDGTHNDNFLAELRDRIPADADQHERPVIFLCRSGNRSIGAAEVATEAGITPAYNVLDGFEGHLDAEGHRGATGWRAVGLPWRQG”, the protein production result was “not failed”.

For the sequence “MSLVNSLTHYEILRIPSDATQDEIKKAYRNRLLNTHPDKLSKSIHDTVSNVTINKIQDAYKILSNIKTRREYDRLILENYK”, the protein production result is “not failed”.

Consider “MVIRELNNNWQSHAFDGYEVNWTEQQQTVSCLHTLVYPLAQGQGLHVTGISWNSTGSVLACAYGRLDDGDWSTLKSYVCTWNLDRQGLNPQQPSVVVEVPSAVMCLAFHPTQPSHIAGGLYSGEVLVWDMSRPEDPLLWRTGLTDDTHTDPVYQVLWLPEPRHSHRFQVLSAATDGKVLLWRGSGAGQLRLTKGFALAVQQLPRSTKLKKPPRGETEVGVTSVAFSSFDSSLFVLGTEGGFPLKCSLASEVAALTRMPSSVPLRAPVQFTFSPHGGPVYSVSCSPFHRNLFLSAGTDGHVHLYSMLQAQPLTSLQLSHKYLFAVRWSPVRPLVFAAASGEGDVQLFDLQKSSQKPTVSITQTQDGSPVYCLEFNSQQTQLLAAGDAKGMVKVWQLSTAFTEQGPREVEDLDQLEAEITT”, for which the protein production entry was “failed”.

With “MESGHRFDAQTLHSFIQAVFRQMGSEEQEAKLVADHLIAANLAGHDSHGIGMIPSYVRSWSQGHLQINHHAKTVKEAGAAVTLDGDRAFGQVAAHEAMALGIEKAHQHGIAAVALHNSHHIGRIGYWAEQCAAAGFVSIHFVSVVGIPMVAPFHGRDSRFGTNPFCVVFPRKDNFPLLLDYATSAIAFGKTRVAWHKGVPVPPGCLIDVNGVPTTNPAVMQESPLGSLLTFAEHKGYALAAMCEILGGALSGGKTTHQETLQTSPDAILNCMTTIIINPELFGAPDCNAQTEAFAEWVKASPHDDDKPILLPGEWEVNTRRERQKQGIPLDAGSWQAICDAARQIGMPEETLQAFCQQLAS”, the protein production entry is given as “not failed”.

As to “TDLPMPRVTVFALWEPLAIMRELWAEGGIGPGRLAVMDRVKGPKTGLLMRHQDKPGGVAFVAIHDGVAMLHALEIPPHQRRKGLGKWAMRGAAFWALDNGAHTLSVICTKANEGANALYRSLGMQLVGEYHYRLLQE”, the protein production result is on record as “failed”.

On to “MAGIRLLPEEPETTPQQQARAAAAVTTTTTDSLASDDDRSIAADSWSIKSEYGSTLDDDQRHADAAEALSSANFRVSSDYSSDKEEPDADGGGQSMLGLQSYWDAAYSDELTNFREHGHAGEVWFGDDVMEIVTSWTKDLCVEISQRNMSVSENDVTTEVNDQADKYLSSWNVLDLGTGNGLLLHQLAKEGFSDLTGTDYSDGAVELAQHLSQRDGFPNIRFMVDDILDTKLEQQFKLVMDKGTLDAIGLHPDGPVKRVMYWDSVSKLVAPGGILVITSCNHTKDELVEEVENFNIRKSNLCRGDGNDANNVLSSGSEAASRIDQPPFEYLSHVRTYPTFMFSGSVGSRVATVAFLRK”, for which the protein production entry is listed as “failed”.

With “MDILKLLMVAILIGLTAFFVAVEFAIIKVRSSRIDQLVSEKRRGALAAKKVTSNLDEYLSACQLGITITALGLGWLGEPTIKHLLEPLFLKLNLSPAIASTVSFIIAFAVITFLHVVIGELAPKTFAIQRAEQVSLLLSKPLIYFYRIMYPFIWALNGSARLVTGLFGLHPASEHEVAHSEEELRLILSESYESGEINQREFKYVNNIFEFDNRVAKEIMVPRTEVIGLYEDEPFETHIKIIAQEKYTRYPVFGEDKDEIIGMVNVKDLFIRYIDGNRDEECSITPYTRPVIEVLENIPIHDLLLQMQRKHIPLAVLYDEYGGTAGIVTLEDILEEIVGEIRDEYDEDEHPPIEHISEGCKIVEGKVLISEVNDLFGIHLIADDVDTIGGWIMVQKQIVAEGDIIEKHGFSFKVLEKDMHQIKRVEIKKVEE”, the protein production entry is on record as “failed”.

“MTIIKYIKFVVIIVIVTIVFSCSKNEAGNSEYDPSLPISLTDFFPIQGGMATRMVIEGANFGTDLSQIKVFFNQKEASILNVKNSIIYLLVPKLPGNDCIVTVKVGNQEARFTRNFQYIENYSVTTIAGQPGTNLFVEGTLAAAQFGPVQHLAIDDENNLFITERNGSDGKGTCSVLNEESGTVTFLFKASDNLNVPTVNAQTQNVYIPLDGGYTFYELNPVNQWIAKSRLVLHPSKEQQEAGMDDFEINWKHSLAFSRYDNMIYTRSYGGDLIKVDPETRVGQKIGNFFPNTDSFIVAHPTQPEILYIAYAAKHVIYTYNIETGEHKLFAGAFGQSGWNDGIATDAEFNSPRQMSLDMEGNIYIADSGNHCIRMIDKNGIVTTPIGQPGEAGYADGSPDMALLNDPRGVAVNSEGDVYIADLGNRCIRKLTLQ”: the protein production result is “failed”.

With “MYELYTLLAEYYDTIYRRRIERVKAEIDFVEEIFKEDAKREVRRVLDLACGTGIPTLELAERGYEVVGLDLHEEMLRVARRKAKERNLKIEFLQGDVLEIAFKNEFDAVTMFFSTIMYFDEEDLRKLFSKVAEALKPGGVFITDFPCWFYGGRDGPVVWNEQKGEEKLVIMDWREVEPAVQKLRFKRLVQILRPNGEVKAFLVDDELNIYTPREVRLLAEKYFEKVKIYGNLKRELSPNDMRYWIVGIAKSF”, the protein production result is “not failed”.

For “MIDTHIHSDTRGLEDLELMAMCLDGVITLAHDPFEMKNIKVWEAHVEKLLINELERAKKVGLNLFICVGMHPRAIPPEIDEALDKIKSYINYNSRVVGIGEIGLEKATKEEKEVFIKQLLLAEELNMPAVVHTPRRNKEEVTKIILDEISTLNLKNRDIVIEHCNKETTKWVLDEEFYVGLTIQPGKLTPLEAVEIVKEYKDFADKILLNSDCSSNASDVLAVPRTVLKMKINGIEKDVIYKVAHKNAVNLFGLDI”, the protein production result is “failed”.

As to “SQPLLDRSIPDFTAFTTVDDWLSAIKMVQYRDSFLTAGFTSLQLVTQMTSEDLLRIGITLAGHQKKILNSIHSMRVQISQSPTAMA”, the protein production entry is recorded as “not failed”.

Regarding “MSWENPGPPKRADARRNYDRIIEAAAAEVARHGADASLEEIARRAGVGSATLHRHFPSRWGLLQAVFQERVAQLCDEARSLAAEHPPATALTRWLTSLAVFGAVTRGAARSLLPATGTNTGAALDSRCEQLLTEAGADLLARAQEDGTVRDDVTALELLSLANAVSLAAEHTPDAAHHATRLMGIALGGLGAPGPRPQG”, the protein production result was “not failed”.

On to “MEPLGNRRPCSVCITKNRNCPRFCEYAEYFPYELQSQYESANELFGTPNIITMMQHAPEEKKQMLATSIIMEGNAWTEDPISGGFGMIQKLMWKIMLHKAYLRELQEKIKEEKEKKPASSLY”, for which the protein production result is “failed”.

For “MSEQNEKEGAVGSLERGLLIIRVLLDAPGPMSLAELAQELALGPSTVHRLLGTLTKLGQVVREPRGKRYLAAPQVLASLSFQHPITLVRLACRSAIEELRERTGETSAFVLFIGYERLVQDFVIGQRLLSPNYQTWLRSPMHGSASGKLLLSTVPENNWVDLIGHEPYQAHTPSTITTYEEMVAEIQAIRRQHYCVSKNEGYEGVSAFGYPVVVLGKTVGCITLTVESASLNESREAFLIQEMLRCVKSIQAVSGSLKLLHDWLF”, the protein production result is “failed”.

On to “KKAKKVRFYRNGDRYFKGIVYAISPDRFRSFEALLADLTRTLSDNVNLPQGVRTIYTIDGLKKISSLDQLVEGESYVCGSIEPFKKLEYTKNVNPNWSVNVKT”, for which the protein production result is “not failed”.

Turning to “TAANAVASRVGAPLGHDYAVLSLSDRLKPWDVVAQRISAVASADMAFAVYNPASKSRTWQVAAMRDLVLEHRSPDTPVIIGRDVAGAQESVRVVRLADLDPAEIDMRCLLIVGSSMTTVVENEHGTRVFTPRRYPG”, the protein production entry is given as “failed”.

In the case of “LTTTSADYIGPIVEHQYLQWDNWPRLGEILRSEKPLAFQQESRFAHDTRARDAFNDAMVRLSQPMVDVVSELGVFARARTVIDLAGGHGTYLAQVLRRHPQLTGQIWDLPTTRDAARKTIHAHDLGGRVEFFEKNLLDARNFEGGAADVVMLNDCLHYFDAREAREVIGHAAGLVKPGGALLILTMTMNDDRVTPALSADFSLHMMVNTNHGELHPTPWIAGVVRDAGLAVGERSIGRYTLLIGQRSSGEV”, the protein production result is “failed”.

With “MRKITQAISAVCLLFALNSSAVALASSPSPLNPGTNVARLAEQAPIHWVSVAQIENSLAGRPPMAVGFDIDDTVLFSSPGFWRGKKNFSPESEDYLKNPVFWEKMNNGWDEFSIPKEVARQLIDMHVRRGDAIFFVTGRSPTKTETVSKTLADNFHIPATSMNPVIFAGDKPGQNTKSQWLQDKNIRIFYGDSDNDITAARDVGARGIRILRASNSTYKPLPQAGAFGEEVIVNSEY”, the protein production entry was “failed”.

Regarding “MREALRSLLVALQFLTRLPVRLSAMPTPEQFGRAVLCYPLVGVLIGVVLYAAARSLDGTPPLLQAALLLSLWVALSGALHLDGLADMADAWVGGLGDRERTLAIMKDPRSGPVAVVVLVLVLLLKFSALAALLGQGEAGLLPLAPWLARSSLPLLFLTTPYARPGGLGQAIAEHLPARSLPWVLGVSFGLALAFGLAGLLALLVTLMLFAWLRSRFLARLGGTTGDTAGALVELTECAVLVALAL”, the protein production result is on record as “failed”.

For “MALDQSLVGRSYPPTAPYEVGREKIREFAEAVGDANPAYTDAEAAKALGHPDVIAPPTFVFSITFKAAGQVIEDPQLGLDYSRVVHGDQKFSYARPVRAGDRLTVTSTIEAIKSMAGNDILDIRGEVHDEAGEHVVTAWTKLVARAAEEALEHHHHHH”, the protein production entry is “not failed”.

As for “MDNDAAKKQLEFLKGGFKLLCQSGGAIFGDADFDGGNLEASEWIAMTEAQFLGGDYSEKDKLACVSGFFGGQAKFWFHKELSWIPFNSWSQVKDGLLLTFGNNRDKKRVLVELDLEMKHWIKDFDRKREPHKFLES”, the protein production entry is recorded as “failed”.

Turning to “MPYVFSFKMPQEQGQMFQYYPVYMVLPWEQPQQTVPRSPQQTRQQQYEEQIPFYAQFGYIPQLAEPAISGGQQQLAFDPQLGTAPEIAVMSTGEEIPYLQKEAINFRHDSAGVFMPSTSPKPSTTNVFTSAVDQTITPELPEEKDKTDSLREP”, the protein production entry is listed as “failed”.
